Measured values from patent US20250043003A1 (ONCOC4, published 2025).

Columns and labels:
[1] = biological target: T1, CTLA-4 (antigen of the affinity measurement of Table 1) (UniProt P16410 36-161, limits assumed); experiment: affinity, method not stated
T1 construct: Antigen form and method of the KD measurement are not described
T1 sequence (looked up): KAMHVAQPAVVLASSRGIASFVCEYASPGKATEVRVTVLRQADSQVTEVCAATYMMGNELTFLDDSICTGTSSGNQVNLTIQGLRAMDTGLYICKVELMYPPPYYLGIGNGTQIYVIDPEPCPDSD

[2] = biological target: T2, His-hCTLA-4 (polyhistidine-tagged CTLA-4) (human, UniProt P16410 36-161); experiment: ELISA, plate-coated His-hCTLA-4, antibody 1 ug/ml, pH 5.5 against pH 7.0
T2 construct: Coated on ELISA plates at 0.5 ug/ml; not shown: polyhistidine tag
T2 sequence (looked up): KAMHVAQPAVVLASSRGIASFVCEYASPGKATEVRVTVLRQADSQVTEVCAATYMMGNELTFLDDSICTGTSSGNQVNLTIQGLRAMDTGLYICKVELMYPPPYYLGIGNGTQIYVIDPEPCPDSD
Method: FIG. 1A-B. pH-sensitivity of TremeIgG1 and its variants. His-hCTLA-4 (0.5 μg/ml) was coated in ELISA plates and different anti-CTLA-4 mAbs were added at 1 μg/ml in the buffer over a pH range of 4.5 to 7.0. pH indicated represents binding and washing conditions. Antibodies bound to CTLA-4 were measured using horse-radish perioxidase-labeled anti-human IgG antibodies.
In order to validate the approach, the activity of the Tremelimumab mutant antibodies was evaluated. To determine if the introduction of histidine to the CDR regions affects the pH sensitivity of the antibodies, the antibody binding to its antigen, polyhistidine-tagged CTLA-4, was measured over a pH range. As a control, HL12, which is known to bind CTLA-4 in a pH-dependent manner, with reduced binding at low/acidic pH, was used.

[3] = biological target: His-hCTLA-4 (polyhistidine-tagged CTLA-4) (human) (UniProt P16410); experiment: as above

B1: AB139 (TremeIgG1) (antibody, V domains shown)
VH: QVQLVESGGGVVQPGRSLRLSCAASGFTFSSYGMHWVRQAPGKGLEWVAVIWYDGSNKYYADSVKGRFTISRDNSKNTLYLQMNSLRAEDTAVYYCARDPRGATLYYYYYGMDVWGQGTTVTVSS
VL: DIQMTQSPSSLSASVGDRVTITCRASQSINSYLDWYQQKPGKAPKLLIYAASSLQSGVPSRFSGSGSGTDFTLTISSLQPEDFATYYCQQYYSTPFTFGPGTKVEIKR
notes: Tremelimumab variable regions; also called mAb139; WT TremeIgG1
Kd [1]: 147 pM

B2: AB158 (antibody, IgG1, V domains shown)
VH: QVQLVESGGGVVQPGRSLRLSCAASGFTFSSYGMHWVRQAPGKGLEWVAVIWYDGSNKYYADSVKGRFTISRDNSKNTLYLQMNSLRAEDTAVYYCARDPRGATLYHYYYGMDVWGQGTTVTVSS
VL: DIQMTQSPSSLSASVGDRVTITCRASQSINSYLDWYQQKPGKAPKLLIYAASSLQSGVPSRFSGSGSGTDFTLTISSLQPEDFATYYCQQYYSTPFTFGPGTKVEIKR
notes: TremeIgG1 mutant, IgG1; also called TremeIgG1M
Kd [1]: 542 pM | binding at pH 5.5 relative to neutral pH (pH 7.0) [2]: ≥ 75%

B3: AB157 (antibody, IgG1, V domains shown)
VH: QVQLVESGGGVVQPGRSLRLSCAASGFTFSSYGMHWVRQAPGKGLEWVAVIWYDGSNKYYADSVKGRFTISRDNSKNTLYLQMNSLRAEDTAVYYCARDPRGATLYHHYYGMDVWGQGTTVTVSS
VL: DIQMTQSPSSLSASVGDRVTITCRASQSINSYLDWYQQKPGKAPKLLIYAASSLQSGVPSRFSGSGSGTDFTLTISSLQPEDFATYYCQQYYSTPFTFGPGTKVEIKR
notes: as for B2
Kd [1]: 2320 pM | binding at pH 5.5 relative to neutral pH (pH 7.0) [2]: ≤ 50%

B4: AB159 (antibody, IgG1, V domains shown)
VH: QVQLVESGGGVVQPGRSLRLSCAASGFTFSSYGMHWVRQAPGKGLEWVAVIWYDGSNKHHADSVKGRFTISRDNSKNTLYLQMNSLRAEDTAVYYCARDPRGATLYYYYYGMDVWGQGTTVTVSS
VL: DIQMTQSPSSLSASVGDRVTITCRASQSINSYLDWYQQKPGKAPKLLIYAASSLQSGVPSRFSGSGSGTDFTLTISSLQPEDFATYYCQQYYSTPFTFGPGTKVEIKR
notes: as for B2
Kd [1]: 387 pM | binding at pH 5.5 relative to neutral pH (pH 7.0) [2]: ≥ 75%

B5: AB154 (antibody, V domains shown)
VH: QVQLVESGGGVVQPGRSLRLSCAASGFTFSHHGMHHVRQAPGKGLEWVAVIWYDGSNKYYADSVKGRFTISRDNSKNTLYLQMNSLRAEDTAVYYCARDPRGATLYYYYYGMDVWGQGTTVTVSS
VL: DIQMTQSPSSLSASVGDRVTITCRASQSINSYLDWYQQKPGKAPKLLIYAASSLQSGVPSRFSGSGSGTDFTLTISSLQPEDFATYYCQQYYSTPFTFGPGTKVEIKR
notes: TremeIgG1 mutant, IgG1; also called mAb154; TremeIgG1M
Kd [1]: 1230 pM

B6: AB156 (antibody, IgG1, V domains shown)
VH: QVQLVESGGGVVQPGRSLRLSCAASGFTFSSYGMHWVRQAPGKGLEWVAVIWYDGSNKYYADSVKGRFTISRDNSKNTLYLQMNSLRAEDTAVYYCARDPRGATLHHHYYGMDVWGQGTTVTVSS
VL: DIQMTQSPSSLSASVGDRVTITCRASQSINSYLDWYQQKPGKAPKLLIYAASSLQSGVPSRFSGSGSGTDFTLTISSLQPEDFATYYCQQYYSTPFTFGPGTKVEIKR
notes: TremeIgG1 mutant, IgG1; also called Mab156; TremeIgG1M
Kd [1]: 4460 pM | binding at pH 5.5 relative to neutral pH (pH 7.0) [2]: ≤ 50%

B7: HL12 (antibody, from another filing, V domains shown)
VH: QVQLQESGPGLVKPSETLSLTCTVSGFSLTSYGLSWIRQPPGKGLEWIGYIWYDGNTNFHPSLKSRVTISKDTSKNQFSLKLSSVTAADTAVYYCAKTEGHYYGSNYGYYALDYWGQGTSVTVSS
VL: DIQMTQSPSSLSASVGDRVTITCRASENIYSNLAWYQQKQGKAPKLLLYAATNLQDGVPSRFSGSGSGTDYTLTISSLQPEDFATYFCQHLWGTPYTFGQGTKLEIK
binding at pH 5.5 relative to neutral pH (pH 7.0) [3]: < 50%
